The text below walks through data of patent US11725220B1, “Production of fusel lactates via biocatalysis” (National Technology & Engineering Solutions of Sandia, LLC, priority 2020, dated 2023).

For series [1] the following is noted: 25° C.; cited from earlier work.
A short description of series [2]: Temperature and pH optimisation, pNPA reaction assay (Example Set 1). To be noted: tested 22, 30, 37 °C; pH 6, 7, 8; 100 μM pNPA. It counts as biochemical. An excerpt: (§1) Esterase activity is used to indirectly measure the esterification activity required for enzymes to produce ethyl lactate. Cleavage of the ester bond in 4-nitrophenyl acetate (pNPA) to form 4-nitrophenol (pNP) and acetic acid is used to determine the esterase activity of the enzymes. The Km and Vmax values, found by applying the Michaelis-Menten kinetics model to experimental data found at optimal pH and temperature conditions, are used to evaluate enzymatic activity. As disclosed herein, hydrolysis of the ester bond in pNPA was used to estimate the esterification activity of the enzymes.
(§2) This work involved two separate sets of examples (Generally, Example Set 1 and Example Set 2). Example Set 1 set was performed to determine the optimum temperature and pH conditions for each enzyme to catalyze the pNPA reaction. Three temperatures (22, 30, 37° C.) and three pH conditions (pH of 6, 7, 8) were tested. The temperature and pH condition which led to the highest product concentration were selected as the conditions to be used for each enzyme in Example set 2. The second set of examples was a kinetics reaction assay where reaction progress was measured at five time points (0, 15, 30, 60, 120) for six different initial pNPA concentrations (0, 25, 50, 100, 150, 200 μM).
Example Set 1 had the objective of determining the optimum temperature and pH conditions at which to run experiments for enzymatic activity characterization. As such, temperature and pH were the only conditions that varied in this experiment. Both were tested at three different levels which were similar to normal cell conditions: 22, 30 and 37° C. for temperature and 6, 7, and 8 for pH.
These were tested for all 8 enzymes from Table 1, as well as the wild type control, and a blank containing no enzyme.
The phosphate buffer was of 6, 7, or 8 pH, respectively. Lysate for each enzyme was diluted down to 250 μg/ml to facilitate ease of addition—each blank received an extra 100 μl of phosphate buffer instead of diluted cell lysate. The enzymatic component was added last and was the catalyst to initialize the reaction. The reactions were performed in three deep 96-well plates each of which was incubated at one of the temperature conditions. Agitation was provided by incubators shaking at 230 RPM.
Readings were made at 30 and 60 minutes following the initialization of the reaction. To make a reading, 200 μl of the reaction volume were transferred from the deep well plates to standard 96-well plates. The pNP product of the pNPA reaction assays is detected through Absorbance at a wavelength of 410 nm.
A curve was generated to convert from absorbances to pNP concentration. The relationship between a colored chemical and its absorbance is usually linear and can be used to convert absorbance values into chemical concentrations. To know how much pNP was being detected through absorbance, it was necessary to create a standard curve to obtain values for the relationship between the concentration of pNP and the absorbance of pNP. Creating a standard curve involved creating samples of different pNP concentrations. For the pNP to give color, it needed to be ionized. Accordingly, pNP was ionized in the presence of NaOH at a concentration of 0.4 g/ml. A standard curve was created by taking the absorbance of pNP at various known concentrations. […] As also seen in FIG. 5, the data (solid line) closely follows a linear pattern over the concentration range being tested for pNP. The R2 value for the linear regression is 0.9939. The formula for converting from absorbance to pNP, derived from that linear regression, is seen in Equation A1: [pNP]=(Abs+0.0244)/25.929 [A1]

The next series deals with E. coli BL21-DE3. The series can be described thus: In vivo production of esters by engineered E. coli, culture supernatants by GC-MS (Example Set 3). In kind it is cell-based. To be noted: culture supernatant, M9 medium, 1 mM IPTG. An excerpt: E. coli cells were engineered through two step cloning. First, the cells (E. coli BL21-DE3, a commercially available genetic transformation-ready strain) were cloned with esterase or transferase enzymes using pET15b plasmid at NdeI/BamHI locus in the vector.
Specifically, plasmids were constructed (PT7::RBS:Gene*::PT7::RBS:pct::RBS:ldh in pET15b) and cloned in E. coli BL21-DE3 with ethanol producing plasmid (pACYDuet-Zm-pdc-Zm-adh). Cells were cultivated with high-cell density in M9 medium and induced with 1 mM IPTG.
Culture supernatants were analyzed through HPLC (for ethanol and lactate) and GC-MS (for esters). Esterase-A yielded highest ethyl lactate (3.5±1.5 mg/L) and ethyl acetate (16±8 mg/L).
FIGS. 18 and 19 show a GC-MS analysis of culture supernatants (collected after 22 h and 46 h of incubation) of mutants extracted with chloroform.

Series [3] can be described thus: Kinetics reaction assay, pNPA to pNP, Michaelis-Menten model (Example Set 2). In kind it is biochemical. To be noted: for specificity constant, comparison in words: FIG. 15; for vmax × 10^−6 / Km: pNPA to pNP, cell lysate 50 μg/ml protein, optimal temperature and pH of each enzyme; for Km: read-out: km × 10^−6; for kcat: turnover number, all protein detected by Bradford's reagent assumed to be the enzyme.
From the text: as §1
Enzymatic activity can be characterized by calculating kinetic parameters for the enzymes considered. To calculate kinetic parameters for an enzyme, a kinetic model must be applied to the data.
In this form, only the initial reaction rate and substrate concentrations are considered—with the initial reaction rate being the average change in product concentration between the reaction initiation and the first subsequent reading. Plotting the inverse of v0 against the inverse of [S0] results in what is known as a Lineweaver-Burk plot. An example of a Lineweaver-Burk plot is seen in FIG. 2.
A linear regression of the data in such plots follows the linearized Michaelis-Menten equations. The y-intercept of the Lineweaver-Burk plot is the inverse of vmax; the slope multiplied by vmax gives the value of the km parameter. This is summarized in Equation 4: […]
Therefore, the kinetic parameters of an enzyme can be determined through the parameters obtained through a linear regression applied to linearized kinetics data. Once vmax and km are determined, they can be used to calculate the turnover number and the specificity constant. This approach utilizes experiments being performed with varying initial substrate concentrations while holding all other parameters constant.
as §2
In Example Set 2, a kinetics reaction assay was performed on the enzymes from Table 1. […] That enzymatic activity was tested for at the ideal temperature and pH conditions determined in the optimization experiment.
One deviation from the common protocols for Example Set 2 was that cell pellets had been stored in −80° C. for seven days instead of the usual 24 hours. In addition, the lysing process included more vigorous agitation.
To determine the kinetic activity for each enzyme, substrate concentration was varied and measured at different time points. In addition to testing each enzyme, a wild type E. coli PET control (see Table 1) was run at its optimal conditions. A blank containing pNPA but no enzyme was also included for each of the temperature pH combinations to be tested.
Initial pNPA concentrations were tested at 0, 25, 50, 100, 150, 200 μM. Measurements were made at 0, 15, 30, 60, and 120 minutes.
The phosphate buffer was of pH 6, 7, or 8 as determined to be best from Example Set 1. Stock solutions of pNPA were made in different concentrations such that adding 20 μl to the reaction would result in the corresponding final pNPA concentration (either 25, 50, 100, 150, or 200 μM). Cell lysate was diluted to concentrations of 250 μg/m to allow for uniformity in the volume of lysate added to each reaction. Instead of diluted lysate, each blank received an extra 200 μl of phosphate buffer. […]

On to `CCOC(=O)C(C)O` (stereo not drawn) [ethyl lactate], for which the vapor pressure in series [1] is given as 3.75 mm Hg.

Regarding xylene, the vapor pressure in series [1] is reported as 8.84 mm Hg.

On to `Cc1ccccc1` [toluene], for which the vapor pressure in series [1] was 28.4 mm Hg.

B1: EstA: esterase from Pseudomonas aeruginosa, expressed in BL21 E. coli (protein, UniProt O33407 25-646, looked up)
Esterase EstA: APSPYSTLVVFGDSLSDAGQFPDPAGPAGSTSRFTNRVGPTYQNGSGEIFGPTAPMLLGNQLGIAPGDLAASTSPVNAQQGIADGNNWAVGGYRTDQIYDSITAANGSLIERDNTLLRSRDGYLVDRARQGLGADPNALYYITGGGNDFLQGRILNDVQAQQAAGRLVDSVQALQQAGARYIVVWLLPDLGLTPATFGGPLQPFASQLSGTFNAELTAQLSQAGANVIPLNIPLLLKEGMANPASFGLAADQNLIGTCFSGNGCTMNPTYGINGSTPDPSKLLFNDSVHPTITGQRLIADYTYSLLSAPWELTLLPEMAHGTLRAYQDELRSQWQADWENWQNVGQWRGFVGGGGQRLDFDSQDSAASGDGNGYNLTLGGSYRIDEAWRAGVAAGFYRQKLEAGAKDSDYRMNSYMASAFVQYQENRWWADAALTGGYLDYDDLKRKFALGGGERSEKGDTNGHLWAFSARLGYDIAQQADSPWHLSPFVSADYARVEVDGYSEKGASATALDYDDQKRSSKRLGAGLQGKYAFGSDTQLFAEYAHEREYEDDTQDLTMSLNSLPGNRFTLEGYTPQDHLNRVSLGFSQKLAPELSLRGGYNWRKGEDDTQQSVSLALSLDF
For the molecule B1, in series [2], the “Temperature giving 2nd highest conversion of pNPA to pNP” value was 37 °C, the “Temperature giving highest conversion of pNPA to pNP” value turned out to be 22 °C, the “pH giving 2nd highest conversion of pNPA to pNP” value turned out to be 8 and the “pH giving highest conversion of pNPA to pNP” value came to 7. In the series on E. coli BL21-DE3, this molecule gave an ethyl acetate yielded of 16 ± 8 mg/L and an ethyl lactate yielded of 3.5 ± 1.5 mg/L. Also, in series [3], the “specificity constant, comparison in words” value is “top performing enzymes”; the “vmax × 10^−6” value is reported as 1.09 ± 0.05 × 10^−6 molL^−1s^−1; the Km was 4.89 ± 1.16 µM; the kcat was 1.52 ± 0.36 s⁻¹.

B2: EEB1: esterase from Saccharomyces cerevisiae, expressed in BL21 E. coli, used as cell lysate (protein, UniProt Q02891 1-456, looked up)
Medium-chain fatty acid ethyl …: MFRSGYYPTVTPSHWGYNGTVKHVLGEKGTKSLAFRDSKRQIPLHEFVTKHVPTLKDGANFRLNSLLFTGYLQTLYLSAGDFSKKFQVFYGREIIKFSDGGVCTADWVMPEWEQTYSLNAEKASFNEKQFSNDEKATHPKGWPRLHPRTRYLSSEELEKCHSKGYSYPLVVVLHGLAGGSHEPLIRALSEDLSKVGDGKFQVVVLNARGCSRSKVTTRRIFTALHTGDVREFLNHQKALFPQRKIYAVGTSFGAAMLTNYLGEEGDNCPLNAAVALSNPWDFVHTWDKLAHDWWSNHIFSRTLTQFLTRTVKVNMNELQVPENFEVSHKPTVEKPVFYTYTRENLEKAEKFTDILEFDNLFTAPSMGLPDGLTYYRKASSINRLPNIKIPTLIINATDDPVTGENVIPYKQARENPCVLLCETDLGGHLAYLDNESNSWLTKQAAEFLGSFDELVL
modifications: cell lysate
B2: in series [2], the “Temperature giving 2nd highest conversion of pNPA to pNP” value turned out to be 30 °C, the “Temperature giving highest conversion of pNPA to pNP” value came to 22 °C, the “pH giving 2nd highest conversion of pNPA to pNP” value was determined as 8 and the “pH giving highest conversion of pNPA to pNP” value is reported as 7. Further, in series [3], the “specificity constant, comparison in words” value is reported as “top performing enzymes”; the “vmax × 10^−6” value is reported as 1.34 ± 0.26 × 10^−6 molL^−1s^−1; the Michaelis constant (Km) was 3.9 ± 0.74 µM; the catalytic constant (kcat) is 1.39 ± 0.26 s⁻¹.

Broadly, the Km is the concentration of substrate that gives half-maximal velocity. In general, kcat refers to the number of substrate molecules converted per active site and unit of time at saturation.
